Source: a protein production outcome set (Wang et al. 2014)

Experiment: label from the status in PepcDB records
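Note: failed if final PepcDB status was selected cloned or expressed and not failed if soluble or beyond.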

Sequence	protein production
MKDREIFAGLSTTVPFVLRLDGRSFHRFSKDRYKKPYDKVFSDAMVKTARALVTDSGLSPSFAYTFSDEISLYVPAPVFDCRVEKLASVSAAFAASAFTLYAGASEPLAFDARVIPIEEGLFPAYLSWRQAEAWRNHMNGYAQKILQDEGVSPTNAQKQLDGMNAAALHEFAFSRGVNLALTPAWERRGICIYRDVVMRDGYNPIKDEKVSVERTIAVIDEDVPLFKSPEGTAWVLSKIRLEHHHHHH	failed
MKDRLINFFGSEWFGMAIATLAVAQTFFLASRYMENITLKYTGEIFFYLGIIIFLVIFILWTIRGLTIHDKKWSHWNNLTRLSFIALVPIILFVINHITIELYGINELMARLSLYNYFFSYFLALILGVLLGYRIYTKEINRNEINYAIIIPPLSIGTSIFLATPLIGYYHGTIAESIYFLVLMGLGIFFFLYIFIGSVALSGHVSNKSGSSLPTAMLPVGVSSLIIINLISINSFGAVIDHLPFSIYTVEFVSILLWGFEVWNFLVMMIIVFRKETFGYLSVWAYGFPLGLFATSTIKLEEVTKIVILGNIFIFIWVALVLLWFYGILNTYVFIRRGILGSHPDK	failed
MKDSQEVTHFSAARSSKWTQHDTYWLLSLFGTAVGAGILFLPINIGLGGFWPLVLMAVLAFPMTYLSHRGLARFVLSSRRPNADFTDVVEEHFGQNAGRLISLLYFLSIFPILLIYGVGLTNTVDSFLVNQADMVSPPRALLSGALVFGLIAIMLSGEKIMLRAFAIMVYPLAAILALLSLYLIPYWSMPSFDFPQTSDFLHTVWLAVPVVVFSFSHAAAISSFANIQRRHYGEQADQKSEQILRHTSVVLILFVLLFVFSCVLALSPQALQEAKAQNISVLTYLANVTDNPFIATLGPLVAFIAITSSFLGHFLGARESLSGLLTKNLGVSLRLAERLTIGFLFVTIWIAAILNPSILGMMEALSGPVIAMILFIMPMIAVFKVPALREHQKRFSTFFVLLVGLLAVSALLYSLLR	failed
MKDVIVIGAGPSGSFAAYRLAKAGFTVDILEEHREVGKPVECTGLVSQRVLKYVRTKSIAGTVRGANIFFPNGKSVHIEKDDPTIVLFRDAFDKDVAAMAIGAGSGIRINARALSVTEHDDHVTVRYRENGSIKEEDARIVIGADGINSVVRRDVYGMRQKHVVSTLQYDMASGIEDEDSVNVYLGSQYTHGFFGWAVPGGDIVRVGTGSYKASARPYMDNLSRRFGDNRTLGITGAGIPIRMAERLSSRRTVLVGDAGGIVKPLSGGGIYTGIFSSDVAANYVVEALESDSSEASLRKYDREIRNTIGKELKKDAMIQRIYSRISDRSFNRIYSMISNEKIIDVINRSGDIDYPSTVIIKVLLRNPGILYSMWKLEHHHHHH	failed
MKEDIVSGTVKRVERHGIIVEVVAGKLDALIPRDQMIPRENFRSGDRIRALFLRVEEIGNTGRKQVILSRTSGDFLVKLYANEVPLEHHHHHH	failed
MKEDYFAEDPKFFNKKLRPKNLDEILKFLKEKFILNDEDKIILITSGGTKVPLEKIEIRNIDNFSTGKRGTLICEYFLKINKKVIFLHRKGSYIPFEYHLKDLAKMENLKVEENNIRFNLTKENERNILIDNLQNYKMYYNNLFLISYDTIFEYGFYLIEISNLLNELMINKYQNTFLLKNIYHKLKQEHNINNLLLYEIFYSTNNILNDMLLFFMSIQNKKCSEISKHQNTSYKLYYKLLLFLNLRFDVYSNNQFFINIQLFFKYIFSLLSNIIQMKEKYNIQQEEIQNIILYIQMLIKNFNSNVLQNNINEQEVIHNNININNIKEEQIIPNNIKNIHNNDNINHCDDNKINNPDNHLLNTDTYILHNNNPSCNDYNLNNLSFNINKYINEEKGKNKKTNQHISEQFLFPTHLVIMCAAASDFYIPYDEMHENKIDSNYSPLSIQLCLTPKFYKIINSHFPLLKYCIFKLEDEEKILIDKSNERIKYTDLLIANLLTQRYDYVYIFKKQFEYVLLKKSNSEQIENDICYEICKHFSIL	failed
MKEIKYLIPYVIFTSFSYYFAKNGVEQVSPSLFMGIRYLLSGLILLPFAKKLRITKNIILLAIMTSTSTAFWAYGLLYVSPAESAVLSYSMPIFSLPIAFLMVSERPSKVEIIGIVIGFTGVIIYGIPLMKGFTIFGAVLTISNAVFWASFTVFYRKLKEEDPFSTNAMQFLIGSLFLFALVPLDPSHNFSLSFAVDVIWMATLGGALQFILWNFMVKISAVNRITVLAFAVPIFTTILGVILSHEIPSGLAIAGVIIMFTGIFVSRLKGGISIVRETSG	failed
MKEITIALVGQPNVGKSSLINALSNAHLKVGNFAGVTVDKMEVGLIHKEHQITIIDLPGTYALNDFTTEEKVTKDFLEKGQYDLILNVVDSTNLERNLALSAQLLDTNKKMLLALNMWDEAQKEGIKINTEKLSKELGVVCVPTSARSKEDRLNTELLLDEIVRLYSQNTTNNENIKVPSQSFKESLKYSQSAQRIAQLVISENQQNASFEHTYKIDKILMHKRYGIFIFLGFMFIIFSLSFLIGGGVQKALETGFKFLSDGIKENVANEDLASLVGDGIIGGVGATVSFLPLIVVLYFGISLLETTGYMSRVAFLLDGILHKFGLHGKSFIPLITGFGCSVPAYMATRTLQNYNERLITLFVIGFMSCSARLPIYVLFVGSFFPSSSAGFVLFCIYILGAVVALVMAKLLKLSVFKGQTESFIMEMPKYRFPSWRMVYFSIYTKSLSYLKKAGTYILVGAILIWFMSQYPKSDAAMKAYKQESLLVNKDTTLSSEAKEEKLKELKTELDKKNLKNSIVGRGGAYLEKVFSPMDFDWRLSVSLVTGFMAKEVVVSTLGVLFSLGDQNEKSDAFRGILRKEVSVPSGIAFIVFVMFYIPCFAATITFGREAGGIKFVAYLFIFTTVVAYAFSLIAFYATQILV	failed
MKELLKLDFFIQKKYIKSSIIVFLFLGITFALTQGMNYLYTMGTFIVFYLTIIPIEVERKSKFNIYLNSLPNKKSNYIYSKYLSTLIYIIVVNLFLYLFCTILGVISGSDFTLTLRAILPNIIVQLFYVSLTLPVYMIISHKFYRVVNIIFTILIMMISSILFNSLENENLQVLFNITNGVYGLAFGILALIISLIVSLNIYKKSEVS	failed
MKELSDVILDRIDAICDEADLLFEDEKSEEAIAKYNEALTLLPEPIEEYEPSAWLISSIGDVYFFDEEYEKALAQFEHAMGCIDSEDNPYLLLRAGQCHFELGQMQDAEDTMHEAYLIEGEEIFEEEDPKYWEFLKSKITIVDLEHHHHHH	not failed
MKENEYRFIMRIFVLVSFTAVLMIAVPFLDTIAFACAFAYMTEPFFNAVRRYAGRTLGAILSILMVTVPALSLVVLILSDVVEFLNTLNVPSLVDTTIQFVNYLGLQNIAQEDLNRILSELWTFLKPTINKMAEQIYGIPLLFIKGLITVFLTYYFLKDGHRFKDAIMPHVPEVYHVQTELFIRKLNEAYKNLFVVNALTSFTVGLISIAGFWAIGLPNPVTLGALSGILTLLPIVGGWTIYMPLSLYYIAVGMYTKAILLFGFGVIFLSLAPDFAIRPRLVNHESDIHPAIALVAFLMGPLALGVTGFALGPLIMGTFDAIFRVKNGKDSIINLK	failed
MKEQSITKGFAILSIASIVAKLLSLIYVPFLTRIVGSVGMGIYGKTYDIFVFVYALTNVGLQTAISKYVSELDAVGNYKDALRAFKISRAFLLVVGTIFTIVLMLSANFIASMSQTPQMVYPIIFLAPTIMITTVLVTYKGYFQGRSQATPIAIATVIEQVANVFLSLLCAYFLIKKSVSLGVAGGTVGSSAGALMAVLYLIYIYNIYGVEKEAKRKQEPGVRRITGKKIARTLFKYGLPITLSTGLQNLGNIIDMLTVSNRLVDAANFSQSDANALYGYFSTRYKILINVPMVFITSLGYMALPAISRAYALKDKKEIKSKINFSMRVTYLLSIPSAFGLALLSENIYRYIFADSNGYKMMVIGAAMIPLTAIVLMQNVILQSVSQFYYVLFTLALSIVVKFTLNMTLVANPDINIYGAVISGMVAFVISLVLNHFRMKKTLKMKISMLKYALKPLLASIYMGIGIILSKYVISLFIDFDKLSLILGIAILLVIIAIGAFMYLHAIIILGGIKKEDIEEISPKLLRVMPRFLRKNIK	failed
MKETTKKIVSKRLTKVVALVLMCVICTSGVITVTALSRDVTVLDGDKMYGLTTLNANPDAVLDRLGIEVSPEDSIEFDEAAAKITIKRAFDVTVEVDGKAKTVTMTEGTVADALEASKVDLKEGDQVVPFAATSLVPDMEIKVARGVEVTVEADGKSVKVKVPVTATVEAAVAAADFTVGKDDVLSAEKTDTVSAGMTIKLDRVSYRETETTQEIPYESTQEETGELDLGDTQVKTAGENGARTIVTREKLVNGQVVETEEISSTVVKEPVNEVLLVGTREVETAPSYGAASTSGGVLVDHDGNQIAYTAVYTGSATAYTAPAGSFTATGRPAQYGNVAVNPDLIPYGSRLYICSPDGSYVYGYAVAADTGGALMSGSALVDVYFDTLSECYGFGRRTLSVYILA	failed
MKFALQINEGPYQHQASDSAYQFAKAALEKGHEIFRVFFYHDGVNNSTRLTTPPQDDRHIVNRWAELAEQYELDMVVCVAAAQRRGIVDEGEASRNGKDATNIHPKFRISGLGQLVEAAIQADRLVVFGD	not failed
MKFDDSKPIYKQIVHYIHTEIVTGTYEAGDKLLSVRELATKLEVNPTTIQRAYAELEEAGIIFTVRGTGKYLTEDKRRIEQLENHIAKQLTENFISEMSKLGINKEKIIAWVKKVEEVEVNASGK	failed
MKFDVIIIGGSYAGLSAALQLGRARKNILLVDAGERRNRFASHSHGFLGQDGKAPGEIIAEARRQIERYPTIHWVEGRVTDAKGSFGEFIVEIDGGRRETAGRLILAMGVTDELPEIAGLRERWGSAVFHCPYCHGYELDQGKIGVIAASPMAIHHALMLPDWGETTFFTNGIVEPDADQHALLAARGVRVETTRIREIAGHADVVLADGRSIALAGLFTQPKLRITVDWIEKLGCAVEEGPMGSTIVTDPMKQTTARGIFACGDVARPAGSVALAVGDGAMAGAAAHRSILFPEMR	not failed
MKFFFLLQIALILLSNSSLLFGQSPPKEKEDSLLLYKEGKFKEAILNTLEEIRLNPSNLDARTILIWSLIAIGEYKRAEKEAIIGLGIKKHDIRIIQALGEAYFFQKNYDNALKYFQEYISLDSKGARIIKVYNLIADSFYELKRYNEADFAYEHALRFSPNNQNLLIKLARSRINAKNKILAEEALIKILTISPNNLEAKNLLEELKKSNNKP	failed
MKFGPRRPADAIGGVTVHSLRQNGLLLKKGTTIGPAEVAALEKAGIAEIVVVQLEPGDVSEDVAAADVAGAVAGDGITVDRAFTGRANLFAGRTGVLVIDRAVVDRINAVDEAITLATLPAFKPVVEGEMVATVKLIPFGVESRLRDAAVAAAQGSALRVAPYVIKRVGVVSTLLPGLAPKVIDKTLRVTAERLAPAGAEIIAERRVAHEEAALSAAIKELLGLGADMVIVFGASAIADRRDVIPAAIGTVGGTISHFGMPVDPGNLLLVGSVSGVPVLGAPGCARSPVENGFDWVLMRLLAGLTVTRADITAMGVGGLLMEIVTRPQPRVPVAESGRNVAAIVLAAGRGTRMGGPNKLLADLNGKPLVRIVAEQALASQAARTIIVTGHQAGEVEAALYGLDLTFVHNPDFAQGIASSVKTGIAALGEDADGAIVCLGDMPLIDAALIDRMITAFDPDRGALIVVPVAEGRRGNPVLWSRRFFTELMTLGGDVGARHLIAKHGEAVTEVPVEGEAAFLDIDTPQALDEARRG	failed
MKFISTSLLLMLLVSSLSPVQGVLEVYYTSLRCRCVQESSVFIPRRFIDRIQILPRGNGCPRKEIIVWKKNKSIVCVDPQAEWIQRMMEVLRKRSSSTLPVPVFKRKIP	failed
MKFKTNKLSLNLVLASSLLAASIPAFAVTGDTDQPIHIESDQQSLDMQGNVVTFTGNVIVTQGTIKINADKVVVTRPGGEQGKEVIDGYGKPATFYQMQDNGKPVEGHASQMHYELAKDFVVLTGNAYLQQVDSNIKGDKITYLVKEQKMQAFSDKGKRVTTVLVPSQLQDKNNKGQTPAQKKGN	not failed
